# Measurements taken from ChEMBL document CHEMBL1130474, “Conformationally restricted arginine analogues as inhibitors of human nitric oxide synthase” (Bioorg Med Chem Lett, 1997).
# B1: Nitric oxide synthase 1 (Homo sapiens), P29475 (protein)
# chain: MEDHMFGVQQIQPNVISVRLFKRKVGGLGFLVKERVSKPPVIISDLIRGGAAEQSGLIQAGDIILAVNGRPLVDLSYDSALEVLRGIASETHVVLILRGPEGFTTHLETTFTGDGTPKTIRVTQPLGPPTKAVDLSHQPPAGKEQPLAVDGASGPGNGPQHAYDDGQEAGSLPHANGLAPRPPGQDPAKKATRVSLQGRGENNELLKEIEPVLSLLTSGSRGVKGGAPAKAEMKDMGIQVDRDLDGKSHKPLPLGVENDRVFNDLWGKGNVPVVLNNPYSEKEQPPTSGKQSPTKNGSPSKCPRFLKVKNWETEVVLTDTLHLKSTLETGCTEYICMGSIMHPSQHARRPEDVRTKGQLFPLAKEFIDQYYSSIKRFGSKAHMERLEEVNKEIDTTSTYQLKDTELIYGAKHAWRNASRCVGRIQWSKLQVFDARDCTTAHGMFNYICNHVKYATNKGNLRSAITIFPQRTDGKHDFRVWNSQLIRYAGYKQPDGSTLGDPANVQFTEICIQQGWKPPRGRFDVLPLLLQANGNDPELFQIPPELVLEVPIRHPKFEWFKDLGLKWYGLPAVSNMLLEIGGLEFSACPFSGWYMGTEIGVRDYCDNSRYNILEEVAKKMNLDMRKTSSLWKDQALVEINIAVLYSFQSDKVTIVDHHSATESFIKHMENEYRCRGGCPADWVWIVPPMSGSITPVFHQEMLNYRLTPSFEYQPDPWNTHVWKGTNGTPTKRRAIGFKKLAEAVKFSAKLMGQAMAKRVKATILYATETGKSQAYAKTLCEIFKHAFDAKVMSMEEYDIVHLEHETLVLVVTSTFGNGDPPENGEKFGCALMEMRHPNSVQEERKSYKVRFNSVSSYSDSQKSSGDGPDLRDNFESAGPLANVRFSVFGLGSRAYPHFCAFGHAVDTLLEELGGERILKMREGDELCGQEEAFRTWAKKVFKAACDVFCVGDDVNIEKANNSLISNDRSWKRNKFRLTFVAEAPELTQGLSNVHKKRVSAARLLSRQNLQSPKSSRSTIFVRLHTNGSQELQYQPGDHLGVFPGNHEDLVNALIERLEDAPPVNQMVKVELLEERNTALGVISNWTDELRLPPCTIFQAFKYYLDITTPPTPLQLQQFASLATSEKEKQRLLVLSKGLQEYEEWKWGKNPTIVEVLEEFPSIQMPATLLLTQLSLLQPRYYSISSSPDMYPDEVHLTVAIVSYRTRDGEGPIHHGVCSSWLNRIQADELVPCFVRGAPSFHLPRNPQVPCILVGPGTGIAPFRSFWQQRQFDIQHKGMNPCPMVLVFGCRQSKIDHIYREETLQAKNKGVFRELYTAYSREPDKPKKYVQDILQEQLAESVYRALKEQGGHIYVCGDVTMAADVLKAIQRIMTQQGKLSAEDAGVFISRMRDDNRYHEDIFGVTLRTYEVTNRLRSESIAFIEESKKDTDEVFSS
# B2: Nitric oxide synthase 3 (Homo sapiens), P29474 (protein)
# chain: MGNLKSVAQEPGPPCGLGLGLGLGLCGKQGPATPAPEPSRAPASLLPPAPEHSPPSSPLTQPPEGPKFPRVKNWEVGSITYDTLSAQAQQDGPCTPRRCLGSLVFPRKLQGRPSPGPPAPEQLLSQARDFINQYYSSIKRSGSQAHEQRLQEVEAEVAATGTYQLRESELVFGAKQAWRNAPRCVGRIQWGKLQVFDARDCRSAQEMFTYICNHIKYATNRGNLRSAITVFPQRCPGRGDFRIWNSQLVRYAGYRQQDGSVRGDPANVEITELCIQHGWTPGNGRFDVLPLLLQAPDDPPELFLLPPELVLEVPLEHPTLEWFAALGLRWYALPAVSNMLLEIGGLEFPAAPFSGWYMSTEIGTRNLCDPHRYNILEDVAVCMDLDTRTTSSLWKDKAAVEINVAVLHSYQLAKVTIVDHHAATASFMKHLENEQKARGGCPADWAWIVPPISGSLTPVFHQEMVNYFLSPAFRYQPDPWKGSAAKGTGITRKKTFKEVANAVKISASLMGTVMAKRVKATILYGSETGRAQSYAQQLGRLFRKAFDPRVLCMDEYDVVSLEHETLVLVVTSTFGNGDPPENGESFAAALMEMSGPYNSSPRPEQHKSYKIRFNSISCSDPLVSSWRRKRKESSNTDSAGALGTLRFCVFGLGSRAYPHFCAFARAVDTRLEELGGERLLQLGQGDELCGQEEAFRGWAQAAFQAACETFCVGEDAKAAARDIFSPKRSWKRQRYRLSAQAEGLQLLPGLIHVHRRKMFQATIRSVENLQSSKSTRATILVRLDTGGQEGLQYQPGDHIGVCPPNRPGLVEALLSRVEDPPAPTEPVAVEQLEKGSPGGPPPGWVRDPRLPPCTLRQALTFFLDITSPPSPQLLRLLSTLAEEPREQQELEALSQDPRRYEEWKWFRCPTLLEVLEQFPSVALPAPLLLTQLPLLQPRYYSVSSAPSTHPGEIHLTVAVLAYRTQDGLGPLHYGVCSTWLSQLKPGDPVPCFIRGAPSFRLPPDPSLPCILVGPGTGIAPFRGFWQERLHDIESKGLQPTPMTLVFGCRCSQLDHLYRDEVQNAQQRGVFGRVLTAFSREPDNPKTYVQDILRTELAAEVHRVLCLERGHMFVCGDVTMATNVLQTVQRILATEGDMELDEAGDVIGVLRDQQRYHEDIFGLTLRTQEVTSRIRTQSFSLQERQLRGAVPWAFDPPGSDTNSP
# How the values were obtained:
# [1] = substrate: N=C(N)NCCC[C@H](N)C(=O)O
# [2] = substrate: N=C(N)NCCC[C@H](N)C(=O)O; remark: listed apart in the source
protein,measurement,setting,value
B1,Km,[1],1.6 µM
B2,Km,[2],0.9 µM
